Measurements from PMC9198586.

Target: p53 (human, wild type) (human (endogenous in HCT 116, MCF7, U2OS)), P04637
Test: co-IP; HCT 116 colon cancer cells, untreated or treated with RITA; co-immunoprecipitation of p53/MDM2 or p53/MDM4 as described previously (Issaeva et al., 2004)
Settings: remark: other sources report otherwise

Sequence of p53 (human, wild type) (human (endogenous in HCT 116, MCF7, U2OS)), P04637 (P04637 whole entry): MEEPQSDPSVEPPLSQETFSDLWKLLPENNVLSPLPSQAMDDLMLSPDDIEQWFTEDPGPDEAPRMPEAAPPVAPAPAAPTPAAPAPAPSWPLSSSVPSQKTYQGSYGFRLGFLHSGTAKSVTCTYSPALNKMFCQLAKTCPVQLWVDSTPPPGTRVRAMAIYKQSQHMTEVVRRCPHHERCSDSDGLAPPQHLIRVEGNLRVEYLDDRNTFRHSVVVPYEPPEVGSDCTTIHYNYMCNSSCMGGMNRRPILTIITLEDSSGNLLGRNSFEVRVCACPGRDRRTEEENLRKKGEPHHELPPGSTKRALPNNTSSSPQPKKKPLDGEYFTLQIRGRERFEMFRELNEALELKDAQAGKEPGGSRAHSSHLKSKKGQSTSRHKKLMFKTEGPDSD

B1: MDM4 (MDMX), human, O15151 1-490 (natural protein)
chain: MTSFSTSAQCSTSDSACRISPGQINQVRPKLPLLKILHAAGAQGEMFTVKEVMHYLGQYIMVKQLYDQQEQHMVYCGGDLLGELLGRQSFSVKDPSPLYDMLRKNLVTLATATTDAAQTLALAQDHSMDIPSQDQLKQSAEESSTSRKRTTEDDIPTLPTSEHKCIHSREDEDLIENLAQDETSRLDLGFEEWDVAGLPWWFLGNLRSNYTPRSNGSTDLQTNQDVGTAIVSDTTDDLWFLNESVSEQLGVGIKVEAADTEQTSEEVGKVSDKKVIEVGKNDDLEDSKSLSDDTDVEVTSEDEWQCTECKKFNSPSKRYCFRCWALRKDWYSDCSKLTHSLSTSDITAIPEKENEGNDVPDCRRTISAPVVRPKDAYIKKENSKLFDPCNSVEFLDLAHSSESQETISSMGEQLDNLSEQRTDTENMEDCQNLLKPCSLCEKRPRDGNIIHGRTGHLVTCFHCARRLKKAGASCPICKKEIQLVIKVFIA
**Q.** With B1 as the binder, how does the percent reduction of the amount of MDMX bound to p53 by RITA read?
**A.** 43%
